Data reported in a protein production outcome set (Wang et al. 2014).

Test: label from the status in PepcDB records

| Sequence | protein production |
| --- | --- |
| MSDAQDSRVGSMFGPYHLKRLLGRGGMGEVYEAEHTVKEWTVAVKLMTAEFSKDPVFRERMKREARIAGRLQEPHVVPIHDYGEVDGQMFLEMRLVEGTDLDSVLKRFGPLTPPRAVAIITQIASALDAAHADGVMHRDVKPQNILITRDDFAYLVDFGIASATTDEKLTQLGTAVGTWKYMAPERFSNDEVTYRADIYALACVLHECLTGAPPYRADSAGTLVSSHLMGPIPQPSAIRPGIPKAFDAVVARGMAKKPEDRYASAGDLALAAHEALSDPDQDHAADILRRSQESTLPGTAAVTAQPPTMPTVTPPPIQAAPTGQPSWAPNSGPMPASGPTPTPQYYQGGGWGAPPSGGPSPWAQTPRKTNPWPFVAGAAAVVLVLVLGAIGIWIAIRPKPVQPPQPVAEERLSALLLNSSEVNAVMGSSSMQPGKPITSMDSSPVTVSLPDCQGALYTSQDPVYAGTGYTAINGLISSEPGDNYEHWVNQAVVAFPTADKARAFVQTSADKWKNCAGKTVTVTNKAKTYRWTFADVKGSPPTITVIDTQEGAEGWECQRAMSVANNVVVDVNACGYQITNQAGQIAAKIVDKVNKE | failed |
| MGQAPDRPHLETFLARLRAGAKILELGCGGGQDSEYMLSAGFDVHPTDGTPDIAKAAQARLGIPVRTLLFENIEDAALYDAVWANACLLHVPRLALPGIIGRIHTALKPGGVFYASFKAGEVEGRDTFGRYYNYPSKAWLEETYGQFAWTEVEIEARQGSGYDKLPTDWLHVTATKALEHHHHHH | failed |
| MMTLIRITSADDSRLNRLIPLYEESFPESERRKIGQLKRMIENHAPMYFNAIECDGELSGMFVYWDMGDFYYLEHLAVFPEMRNKKIGQQVLDYVAEHLKGVRLLEVEPTEDEMTTRRVNYYRRNGYEVLDKTYVQPSYHALEDACPLWIMGSEDSPRLAEQVERIKEEVYRQQVG | not failed |
| VKPKGAFKAFTGEGQKLGSTAPQVLSTSSPAQQAENEAKASSSILIDESEPTTNIQIRLADGGRLVQKFNHSHRISDIRLFIVDARPAMAATSFILMTTFPNKELADESQTLKEANLLNAVIVQRLT | failed |
| MGKTPEEVDEVNKAAFSTSEASATIAAMNQLHKPVDTVVAHISPEAPAAKVMAEGDVITQVAGAKATGPSQVRDAVRAKKPGETISIGFLRDGKQLTREVTLGTHPEDDKVAFLGVSMTARPLEHHHHHH | not failed |
| MKLEAEAVAPSNIAIVKYWGKRDRELNLPLNSSLSISLDSLWVRSRVIFDESLDKDEVIINGKRLSENEVREYAGRVLRRFRDLYGKELFARVESTTNFPSSAGLASSAAGIAALTYASNAALGLGLSNRELSKIARVGSGSACRSMFGGFVKWNRGELESGDDSFCEEIFPPDHWPDLVDIIPIFGEEKKKVSSRTGMENTATSSALMRCRLQFIEETFNEVIDAIRTKNAGKFFQLTMRHSNSMHAVILDSWPPMNYLNEKSFRVMEWVVEFGKAAYTFDAGPNPHIFVLEKDVDEVLKFLNEIGSTKTIVSRVGKGPYLI | failed |
| MAAIDAALKAGEKILSIYEDPKSDFEIERKADNSPLTIADRKAHEAIVAILNETPFPVLSEEGKHMDYAVRRGWDTLWIVDPLDGTKEFIKRNGEFTVNIALVQNAVPVMGVIYVPVKKELYFAVEGTGAYKCSGIVGLEDEGVTLQQMIEKSERMPLADARDHFIAVASRSHLTPETETYIADLKKKHGNVELISSGSSIKICLVAEGKADVYPRFAPTMEWDTAAGHAIARAAGMEVYQAGKEEPLRYNKEDLLNPWFIVEAKRER | not failed |
| MISTTTVSDLYITFGLIGVFLAGMIAVLYATNRKSDSFSDYAVGGRSYGPWFIAMCYTNSWWPGATFTAFFALSVGGALGFYGMVYATLGVTAMYLMANRAWTWGKRFNLTTQPDLLGMRFNSPVVKRIASIIGIISVFPWVVMGIQALATLFQFASFGRWGVTTCLLVGVAVILIRQYWTVSMGMRGLIMTDMYQGLIAYVLCAALCIFLMFGAQASFSNLSQLPASMLVIPGGTGSTYGPMYMFSLIFTGVIGSMCWPMSFQRIYTASGVRSVKKGTLLTILLVGGFYGILMLFAAAISQDPNVAAHPQHGWFLSLFDIGGPWLLAVAIMIVLAASIGHVDGCVQVCGTQFANDLATWNTPRSDREKTILAKAGMVVFIAAASLLAYLTFDYARLQLLAQISYQGIIQLAVPLFFGVFSRRGNKQGAIVGMLVGIVIAIVLTTIYPDDIPGLGSLTSGIVGLIFNAGIFVACAVAIKPSAEEVRRVDELFAMAAPQRHPAGVAPVMS | failed |
| MKPRGICFFDMDGTLLNSESKVLDTSLQALDKLRENNVIPVIATGRTLIEISHQMKITGIESAVMMNGQMAIFEGEKVYEDVIDADLLDRLTEEAKSQNVEVCYYNDKRIGATASTPVVKAHYDFLGEPMPKVRPNMYKEETINMALLLLETGDDYFPERFPELQFVRNTPFSNDVLRKGGSKAVGISKLLEVMGYQDVPTYAFGDGMNDLEMFGAVDYAIAMENAVPLLKEKADFVTKDNNSDGIMLGLKQFDLI | failed |
| MTERKVSWLELFFDLIFVTAVASTTHLLLSVDNHPDKTAAYFGEYLLMVTPMFWAWVGQTMFFNRFGEKIKWPELYMLSQMFFLILMTASFDLTFSNTYYTFLIGYLGIRFITVIQYFVISKQLTGNAQKVALLLGSVFLLGVLTTATSVFFEGFARYLVMYLGIAVDIILPLFLAKTLRKVPVDFPHLAERFGLFVIITFGESIVAITTILVGHTLDLYTICYTLLGFLIICTLWASYFYSFEKIVDHHKVTHGQFLIYGHFFIIVSVMLLAVNLHLLFEGHLQRDVLLLLLFSSVAVFFISKQFVFAAHKKAEVSFSFWKDALLLLLLVGLFFVNLYINLPLFVSFVSIWICALVDLGLQFGTSRSVRM | failed |
| MKYISPGFVDAHSHIGMIPDGLEWEFQEANDFYSPIAPHLRAVDGFDPYDEAFKEAIAGGVTTVATGPGSANVMGGIGLLAKTYEEGFEKIIKPEAFIKMALGPKRPREYKSKYPYPTTRMGTVALMRTWFKRAREFMEGKIKTDNIDEEEIEMLRLLARALKREIQVKIHLSTSPDEIYAAIRIIKEFNLNATIDHAFGSQLVADMLSREGIPVIYGPPMITRIASFFRYVDDKAPVLLFKKGVNVSIMTDHPVLPEKHLRLLAAVVARNGLSLDDALKLITINPAKALGIDRFVGSLEHHHHHH | failed |
| MKGGTIQISWHDGKPVLTVDFHPISGLLATAGADYDIKLWLINSGQAEKKVPSVSYQSSLTYHGCAVNTIRFSPSGELLASGADGGELFIWKLHPSETNQSWKVHKSLSFHRKDVLDLQWSPDDAYLISGSVDNSCIIWDVNKGSVHQILDAHCHYVQGVAWDPLAKYVASLSSDRTCRIYANKPQTKSKGVEKMNYVCQHVIMKADQQRGDETKTIKTHLFHDETLPSFFRRLSWSPDGSFLLIPAGSFKVSPTSEAVNATYVFSRKDLSRPALQLPGASKPVVVVRFCPVAFKLRGSSSEEGFFKLPYRLVFAIATLNSVYIYDTECVAPIAVLAGLHYAAITDITWSPNASYLALSSQDGYCTLVEFEDKELGEAVSISGLLLVLSLLNLPEPD | failed |
| MKIIGIIQARTGSKRLKNKVLLKLGDRCILEILLERLKKSKKLDDIIVATTIKKEDNAIVELCNSLGVNVFRGSEKDVLDRFYNASKFYSGDVIVRITGDNPLTSIELIDKQVEYLLKNNFDYVSTKNIILGLSSEVFTFDALEKAWKNAKEKYQREHVTPYIYENPNLFKVFYLEPPEYLKREGIRLTIDTIKDFKLYLELQKHFDLINVDIRQIIDFLDKNPQIKNINSNVRQKSYREVEE | failed |
| MADRVIRADAKGVMRVEDGQAYNEAGQRLDDHALIPPEDANEDQARLNAQLAARDAAGLIVDLHNRGIDRHLWEQNEDAIGVERHNRGVDRHQPQIPAAIPLAAEPRRTLGDFNRPGMFYANRSAIVPPPYQRNDYESHLFYYITLHI | failed |
| MADKAVADRTIEGLTRAGAAMAAGEIDQAAAHLQAAAQLCPDEPMIWALLGEVLLLLDRPQDGLGALDRALALAPEDPRPRFHRARAFERLDRLAEALADQEALAILCANKAEVWHNLGLLRRAGGDPSGAEAAFGRALALEPSRAESALALAHSLLGRAAWAEGFAHYEARLSLPGWQRPAPLPGRRWRGEDPAGRTLLVSAEQGLGDGVQFLRYLPLIKGAGKVIVECHPPLRRLIAAQPGVDATIAFGEAIPDLGAEGLTIPLASLALPLAGGAPLGERIPYVSKPRLRPQGDRPRIGLAWRSSDRAELRRDPPLAALAALAAIPAVDWVSLQFAPTDYPALPLDLRPMASVDDLDDTAALIADLDLVISVDTAVAHLAGAMGKPLWVLLGPRADWRWTASAQSSPWYPSCVPFFHGAEGWPGVIAAVSERLKAAFNGPPAR | failed |
